Target: FGF-receptor on dissociated neurons from embryonic rat hippocampus (rat)
Experiment: cell-based or functional assay

Binder	neurite outgrowth from hippocampal neurons, 50 µM peptide, relative to the entire FG loop peptide [%]
VAENQQGKS [truncated version of the FG loop peptide, nonamer Val 76-Ser 84]	~50
AENQQGK [truncated version of the FG loop peptide, heptamer Ala 77-Lys 83]	~50

Source: patent publication US20090305951A1 (published 2009)
